Measurements taken from paper doi:10.1101/2023.07.18.549521 (bioRxiv, 2023).

B1: AP-4 β4 appendage domain (residues 615-739) (domain or fragment, UniProt Q9Y6B7 615-739, looked up)
chain: SGALMLVPNRQLTADYFEKTWLSLKVAHQQVLPWRGEFHPDTLQMALQVVNIQTIAMSRAGSRPWKAYLSAQDDTGCLFLTELLLEPGNSEMQISVKQNEARTETLNSFISVLETVIGTIEEIKS
B2: full-length tepsin-GST (residues 1-525) (natural protein)
chain: MAAAPPLRDRLSFLHRLPILLKGTSDDDVPCPGYLFEEIAKISHESPGSSQCLLEYLLSRLHSSSGHGKLKVLKILLYLCSHGSSFFLLILKRNSAFIQEAAAFAGPPDPLHGNSLYQKVRAAAQDLGSTLFSDTVLPLAPSQPLGTPPATGMGSQARPHSTLQGFGYSKEHGRTAVRHQPGQAGGGWDELDSGPSSQNSSQNSDLSRVSDSGSHSGSDSHSGASREPGDLAERVEVVALSDCQQELSLVRTVTRGPRAFLSREEAQHFIKACGLLNCEAVLQLLTCHLRGTSECTQLRALCAIASLGSSDLLPQEHILLRTRPWLQELSMGSPGPVTNKATKILRHFEASCGQLSPARGTSAEPGPTAALPGPSDLLTDAVPLPGSQVFLQPLSSTPVSSRSPAPSSGMPSSPVPTPPPDASPIPAPGDPSEAEARLAESRRWRPERIPGGTDSPKRGPSSCAWSRDSLFAGMELVACPRLVGAGAAAGESCPDAPRAPQTSSQRTAAKEPPGSEPSAFAFLNA
B3: tepsin LIR motif peptide (residues 185-193) (peptide)
peptide: SGGGWDELDS

Tests used:
[1] = target: B2; experiment: pull-down
[2] = target: T1, His6x-LC3B (residues 1-120) (UniProt Q9GZQ8 1-120); experiment: pull-down
[3] = target: T1, His6x-LC3B (residues 1-120); experiment: ITC

Binder: B1
- binding result [1]: binds

Binder: B2
- binding result [2]: binds

Binder: B3
- Kd [3]: 44.4 µM
